For data set [1], the target named is BePL17, PL17 subfamily 2 alginate lyase from Bacteroides eggerthii DSM 20697 (Bacteroides eggerthii DSM 20697). Kind of data set: SEC; elution on HiLoad Superdex 200 pg 16/600; data not shown.
Data set [2] addresses BeKdgF, KdgF-like metalloprotein from Bacteroides eggerthii DSM 20697 (Bacteroides eggerthii DSM 20697). Briefly: NMR 15N relaxation (rotational correlation time from T1/T2); 0.43 mM 13C-15N-labelled BeKdgF, 25 mM Na2HPO4 pH 7.2, 50 mM NaCl, 25 °C, 800 MHz.
Data set [3] has the same target. Kind of data set: SEC-MALS; BeKdgF at 1 mg/mL, 40 ul on Superdex 200 Increase 10/300 GL, 50 mM HEPES, 150 mM NaCl, pH 7.7, ice-cold buffer, 0.5 ml/min; DAWN8+ detector; equilibrium of tetramer and dimer.
Data set [4] addresses T1, BeKdgF (Bacteroides eggerthii, UniProt A0A380Z821).
T1 construct: gene DW701_08695; no signal peptide; theoretical mass 14,137 Da; locus tag BACEGG_03250 inferred from gene order in PUL BACEGG_03245-03254 (PL17 = BACEGG_03249)
T1 sequence (A0A380Z821 1-114): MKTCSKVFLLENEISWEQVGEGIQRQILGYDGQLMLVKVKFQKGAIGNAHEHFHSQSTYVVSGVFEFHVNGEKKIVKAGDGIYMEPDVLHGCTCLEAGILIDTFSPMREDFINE
Briefly: loss of absorbance at […] nm, Michaelis-Menten fit, spontaneous conversion subtracted. It is filed as biochemical. The following applies: 50 mM HEPES, 150 mM NaCl, pH 7.0; 20 nM enzyme, no metal added; saturation not achieved (estimate); substrate made from polyM by BePL17.

Data set [5] concerns Asp102. Kind of data set: NMR. Conditions: 25 °C; 25 mM NaCl; 20 mM HEPES (starting pH 7.2), pH adjusted with HCl/NaOH; Folded recombinant BeKdgF as purified, 0.26 mM, no substrate or ligand added; metal loading not given.
The test system of data set [6] is Asp110. Kind of data set: NMR. Conditions: 25 °C; 25 mM NaCl; 20 mM HEPES (starting pH 7.2), pH adjusted with HCl/NaOH; Folded recombinant BeKdgF as purified, 0.26 mM, no substrate or ligand added; metal loading not given.
The test system of data set [7] is Asp21. Kind of data set: NMR. The following applies: 25 °C; 25 mM NaCl; 20 mM HEPES (starting pH 7.2), pH adjusted with HCl/NaOH; Folded recombinant BeKdgF as purified, 0.26 mM, no substrate or ligand added; metal loading not given.
The subject of data set [8] is Glu114. Kind of data set: NMR. Conditions: 25 °C; 25 mM NaCl; 20 mM HEPES (starting pH 7.2), pH adjusted with HCl/NaOH; Folded recombinant BeKdgF as purified, 0.26 mM, no substrate or ligand added; metal loading not given.
Data set [9] has as its system Glu13. Kind of data set: NMR. The following applies: 25 °C; 25 mM NaCl; 20 mM HEPES (starting pH 7.2), pH adjusted with HCl/NaOH; Folded recombinant BeKdgF as purified, 0.26 mM, no substrate or ligand added; metal loading not given.
Data set [10] has as its system Glu17. Kind of data set: NMR. The following applies: 25 °C; 25 mM NaCl; 20 mM HEPES (starting pH 7.2), pH adjusted with HCl/NaOH; Folded recombinant BeKdgF as purified, 0.26 mM, no substrate or ligand added; metal loading not given.
The test system of data set [11] is Glu66. Briefly: NMR. Conditions: 25 °C; 25 mM NaCl; 20 mM HEPES (starting pH 7.2), pH adjusted with HCl/NaOH; Folded recombinant BeKdgF as purified, 0.26 mM, no substrate or ligand added; metal loading not given.

As a reminder, the stoichiometry N is the number of molecules, sites or subunits per partner or assembly. As a reminder, the Km is the concentration of substrate that gives half-maximal velocity. In general, pKa refers to the pH at which an ionisable group is half protonated.

Where “and” joins values, the source holds several entries; their conditions need not be identical. Identical values can stand only once.

“BePL17, PL17 subfamily 2 alginate lyase from Bacteroides eggerthii DSM 20697 (enzyme)”: the stoichiometry N in data set [1] stood at 2.
Regarding “BeKdgF, KdgF-like metalloprotein from Bacteroides eggerthii DSM 20697 (enzyme)”, the stoichiometry N in data set [2] was 2. Also, in [3], the percent of the protein as dimer is 93.5%; the percent of the protein as tetramer came out at 6.5%; the stoichiometry N is 4 and 2.
With “4-deoxy-β-L-threo-hex-4-enopyranuronic acid [compound 1]”, the Km in [4] was 1140 ± 560 µM.
For “BeKdgF (KdgF-like cupin metalloprotein; annotated Unk3 in PULDB) (Bacteroides eggerthii DSM 20697)”, the pKa was 5.9 ± 0.1 in data set [5]; 5.5±0.2 in data set [6]; 5.0±0.2 in [7]; 5.1±0.1 and 5.2±0.1 in [8]; 5.0 ± 0.2 in data set [9]; 4.9±0.1 in data set [10]. Moreover, the pKa in data set [11] is 5.6±0.1 and 5.1±0.2.

The values are drawn from paper PMC11381880, “Action and cooperation in alginate degradation by three enzymes from the human gut bacterium Bacteroides eggerthii DSM 20697” (The Journal of Biological Chemistry, 2024).
